# According to patent US8409577:
# Target: T1, CD20 (human) (UniProt P11836)
# T1 sequence (looked up): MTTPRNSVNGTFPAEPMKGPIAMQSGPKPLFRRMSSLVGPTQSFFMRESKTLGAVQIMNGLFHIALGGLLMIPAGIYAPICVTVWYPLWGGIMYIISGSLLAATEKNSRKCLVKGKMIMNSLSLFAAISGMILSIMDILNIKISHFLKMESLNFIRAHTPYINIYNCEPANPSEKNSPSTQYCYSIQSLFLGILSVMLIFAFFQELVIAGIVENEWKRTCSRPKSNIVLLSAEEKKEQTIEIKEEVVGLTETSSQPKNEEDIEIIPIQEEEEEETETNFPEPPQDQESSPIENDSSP
# Assay: competition, flow cytometry on Ramos B cells; competitor PE-labeled monoclonal anti-CD20 antibody 3 ug/ml
substance,measurement,value
CD20×CD37 bispecific scorpion (015×016) (bispecific antibody),IC50 (read off the curve),4 nM
